The text below walks through data of paper PMC4468861.

This assay deals with N-terminally GST-tagged M. jannaschii SR(aa93-408) (M. jannaschii) (UniProt Q57739).
Sequence of UniProt Q57739 (Q57739 93-408): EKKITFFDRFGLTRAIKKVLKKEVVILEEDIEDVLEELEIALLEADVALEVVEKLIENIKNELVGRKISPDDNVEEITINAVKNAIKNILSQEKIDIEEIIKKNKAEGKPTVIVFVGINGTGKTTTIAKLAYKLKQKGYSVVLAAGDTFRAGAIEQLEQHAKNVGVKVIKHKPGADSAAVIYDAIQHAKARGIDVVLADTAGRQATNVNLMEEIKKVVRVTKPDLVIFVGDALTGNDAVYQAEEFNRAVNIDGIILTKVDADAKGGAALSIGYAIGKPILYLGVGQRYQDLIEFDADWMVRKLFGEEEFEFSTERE

In the case of “M. jannaschii SRP core complex containing fl-SRP54-ss, SRP19 and SRP RNA (from UniProt Q57565 1-451; Q58440 1-87)”, the GTPase rate of the SRP-SR complex in multiple turnover reactions (0.5 uM SRP, SR 0-25 uM, 25 °C), against SRP complexes containing SRP54-ss as the text prints (fl-SRP54 by the legend of Fig. 1b) was determined as 20 fold.
